The binders below were run against apoE cleavage enzyme (chymotrypsin-like serine protease; in mouse brain lysate or roughly/partially purified) (assay: cell-based or functional assay).

inhibition of apoE cleavage enzyme activity (chromogenic assay, 1 mM Ala-Ala-Pro-Phe-p-nitroanilide; 6 mM peptide; 20 hour incubation) | Binder
56% | AAPL [Ala-Ala-Pro-Leu (SEQ ID NO:3)]
58% | AAAAPF [Ala-Ala-Ala-Ala-Pro-Phe (SEQ ID NO:4)]
67% | AAPF [Ala-Ala-Pro-Phe (SEQ ID NO:1)]

Reference: patent publication US20020147999A1 (J DAVID GLADSTONE INSTITUTES, published 2002)
